Assay [1] has as its target T1, mouse calmodulin (mouse, UniProt P0DP26 1-149). In words: SPR; 1 mM EGTA (no Ca2+). (In general: Surface plasmon resonance follows binding to a sensor surface in real time, without labels.)
Assay [2] has as its target T1, mouse calmodulin. In words: SPR; 1 mM EGTA (no Ca2+). The source holds these as a separate data set.

Data on one molecule can be found in publication PMC11033526 (2023).

One may read the Kd as the free concentration of one partner at which half of the binding sites on the other are occupied at equilibrium, for simple one-to-one binding. As a reminder, the koff is the first-order rate constant of dissociation.

No end group written: not given here. *: point of attachment. Biotin = O=C1N[C@H]2[C@H](CS[C@H]2CCCCC(=O)*)N1

With Biotin-GGSGGSPKCYMILFYPERNTSAYFNSMIQGYTMRKS [biotin-mT1r2 CT peptide (cytosolic C-terminal region of mouse taste receptor type 1 subunit 2)], binding in the assay with mouse calmodulin [1] was put at a Kd of 9.7 µM. In addition, the koff in the assay with mouse calmodulin [2] amounted to 0.00207 s⁻¹.
